Consider one molecule from patent publication US20170260274A1.

Assay [1] concerns the target epidermal growth factor receptor (EGFR) (human), P00533. Put plainly: flow cytometry, equilibrium binding on EGFR-expressing A431 cells (apparent KD). For orientation: Flow cytometry measures light scatter and fluorescence of single cells or particles in a stream.
Assay [2] shares this target. Put plainly: cell-based or functional assay.

B1: Ranpirnase-DEN-scFv (protein)
chain: QDWLTFQKKHITNTRDVDCDNIMSTNLFHCKDKNTFIYSRPEPVKAICKGIIASKNVLTTSEFYLSDCNVTSRPCKYKLKKSTNKFCVTCENQAPVHFVGVGSCMVDRGWGNGCGLFGKGGIVEVQLVESGGGLVQPGGSLRLSCAASGFSLTNYGVHWVRQAPGKGLEWLGVIWSGGNTDYNTPFTSRFTISRDNSKNTLYLQMNSLRAEDTAVYYCARALTYYDYEFAYWGQGTTVTVSSGGGGSGGGGSGGGGSDIQLTQSPSFLSASVGDRVTITCRASQSIGTNIHWYQQKPGKAPKLLIKYASESISGVPSRFSGSGSGTEFTLTISSLQPEDFATYYCQQNNNWPTTFGAGTKLEIKR
modifications: not checked
In the case of B1, the Kd in assay [1] was 11.2 nM. For the same molecule, in assay [2], the IC50 (nM), cell viability, A431 amounted to 38 nM; the IC50 (nM), cell viability, HNO97 is 411 nM; the IC50 (nM), cell viability, HNO211 worked out at 18 nM; the IC50 (nM), cell viability, HNO410 turned out to be 308 nM. The same molecule showed a fold increase in potency compared to Ranpirnase-GS-scFv, HNO211 cells in assay [2] of 79 fold.
